# Target: mouse PIEZO1-S2472E mutant (mouse) (UniProt E2JF22)
# Assay: cryo-EM structure
substance,measurement,value
"mouse PIEZO1-S2472E mutant, E2JF22 1-2547",stoichiometry N,3

# Source: article doi:10.1101/2023.09.28.559900
